In patent US20210147829A1, “VARIANT NUCLEOTIDE LIBRARY” (The University of Manchester, priority 2017, published 2021):
Substitutions are numbered along the chain they refer to. Names and notes keep the numbering of the source.

Assays:
[1] = Liquid phase kinetic assay of purified MAO-N variants, substrate butylamine; type: biochemical
Experimental: (§1) Selected variants were overexpressed by BL21 (DE3) E. coli strain in 700 mL of LB medium with 100 μg mL^−1 ampicillin. 0.5 mM of IPTG was introduced to the culture when OD600 reached 0.6 and the culture was incubated at 25° C., 180 rpm. Cells were harvested after 16-20 hours and purified using 5 mL Histrap FF crude column (GE Healthcare) with an AKTA Explorer 100 protein purification system as described (55).
(§2) A range of amine stock solutions including α-methylbenzylamine, N-amylamine, butylamine, benzylamine or cyclohexylamine (all from Sigma) were prepared in 0.1 M potassium phosphate pH 7.7. The final concentration range of the substrate was between 0.5 mM to 100 mM. A colourimetric assay solution was made up by dissolving Pyrogallol red (0.3 mM final concentration) in 0.1 M potassium phosphate, pH 7.7. The assay was conducted by combining 35 μL of substrate solution, 50 μL of Pyrogallol red solution and 5 μL of horseradish peroxidase (1 mg mL^−1) in a flat bottom 96-well plate and started by adding 110 μL of purified MAO-N. Assay progress was monitored at 550 nm at 25° C. in a Molecular Devices Spectramex M2 plate reader. The data were analysed using Prism7 (GraphPad) which was also used to calculate kinetic parameters such as kcat, km and Vmax.

[2] = Liquid phase kinetic assay of purified MAO-N variants, substrate N-amylamine; type: biochemical
Experimental: as §1, §2

[3] = Liquid phase kinetic assay of purified MAO-N variants, substrate benzylamine; type: biochemical
Experimental: as §1, §2

[4] = cited from earlier work; for kcat, substrate AMBA: Table 3
[5] = MAO-N variant activity to native primary amine substrates (taken together); type: biochemical; conditions: range over native substrates
Experimental: as §1, §2

[6] = Liquid phase kinetic assay of purified MAO-N variants, substrate α-methylbenzylamine; type: biochemical; conditions: Table 4; kcat for α-methylbenzylamine
Experimental: as §1, §2

[7] = Table 4, α-methylbenzylamine, Reference {Alexeeva 2002}

B1: WT: Wild type monoamine oxidase-N (MAO-N, A. niger), an amine-oxidising biocatalyst (protein, UniProt P46882 1-495, looked up)
Monoamine oxidase N: MTSRDGYQWTPETGLTQGVPSLGVISPPTNIEDTDKDGPWDVIVIGGGYCGLTATRDLTVAGFKTLLLEARDRIGGRSWSSNIDGYPYEMGGTWVHWHQSHVWREITRYKMHNALSPSFNFSRGVNHFQLRTNPTTSTYMTHEAEDELLRSALHKFTNVDGTNGRTVLPFPHDMFYVPEFRKYDEMSYSERIDQIRDELSLNERSSLEAFILLCSGGTLENSSFGEFLHWWAMSGYTYQGCMDCLISYKFKDGQSAFARRFWEEAAGTGRLGYVFGCPVRSVVNERDAARVTARDGREFAAKRLVCTIPLNVLSTIQFSPALSTERISAMQAGHVNMCTKVHAEVDNKDMRSWTGIAYPFNKLCYAIGDGTTPAGNTHLVCFGTDANHIQPDEDVRETLKAVGQLAPGTFGVKRLVFHNWVKDEFAKGAWFFSRPGMVSECLQGLREKHRGVVFANSDWALGWRSFIDGAIEEGTRAARVVLEELGTKREVKARL
kcat, substrate BTA ([1]; Table 3): 6.57 s⁻¹ | kcat Butylamine (BTA) ([1]; Table 5): 6.57 s⁻¹ | kcat, substrate AA ([2]; Table 3): 6.45 s⁻¹ | kcat N-amylamine (AA) ([2]; Table 5): 6.45 s⁻¹ | kcat, substrate BZA ([3]; Table 3): 4.37 s⁻¹ | kcat Benzylamine (BZA) ([3]; Table 5): 4.37 s⁻¹ | kcat, substrate AMBA ([4]; Reference {Alexeeva 2002}): 0.00283 s⁻¹ | kcat [4, 7]: 0.00283 s⁻¹ | kcat towards α-MBA ([4]; wild type, literature value): 0.00283 s⁻¹ | kcat for several primary amine substrates ('wild type speed') [5]: 4.37 to 6.57 s⁻¹

B2: D1 N336S: MAO-N variant D1 with mutation N336S, Reference {Alexeeva 2002} (protein, UniProt P46882 1-495, looked up, variant N336S)
Monoamine oxidase N: B1 Monoamine oxidase N with N336S
kcat, substrate AMBA ([4]; Reference {Alexeeva 2002}): 0.133 s⁻¹ | Km [4, 7]: 400 µM | kcat [4, 7]: 0.133 s⁻¹ | Improvement over wild type [6]: 40-fold
